Measurements as given in PMC12535091.

Molecular target: Human β2GPI domain deletion mutant DI-DIV (human)
Assay: ELISA; β2GPI or domain deletion mutants coated on Maxisorb plates at 1 µM overnight at 4 °C; Apo E-Biotin 50 nM, 1 h at RT; streptavidin-HRP, OD 450; % of binding to full length β2GPI

% binding: 42.5%
Substance: Human Apo E2, biotinylated (from UniProt P02649 19-317) (natural protein)
